B1: glmS ribozyme (parent)
chain: AUAAAAGCGCCAGAACUACAGAAAUGUAGUUGACGAGGAGGAGGUUUAUCGAAUUUUCGGCGGAUGCCUCCAAA

Common to all, as to settings: with glucosamine-6-phosphate
In series [1] the parent is B1. The series can be described thus: kcat; higher = faster cleavage; RNA array. A digest of the protocol:
(§1)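 Tiles bearing barcoded ribozyme variants, transcribed in situ by E. coli RNA polymerase on sequenced MiSeq chips, were imaged over ~14 h at 37 °C using a hybridised Cy3 probe. Glucosamine-6-phosphate was supplied at 40 μM to 10 mM in HEPES/KCl/Mg(OAc)2 buffer. kobs came from one- or two-exponential decay fits to normalised per-tile medians, and weighted Michaelis–Menten fits then provided kcat and KM.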

Series [2] covers variants of B1. The series can be described thus: self-cleavage kobs at 40 uM GlcN6P; higher = faster cleavage; RNA array. An outline of the steps:
as §1

In series [3] the parent is B1. Nature of the series: self-cleavage kobs at 160 uM GlcN6P; higher = faster cleavage; RNA array. A digest of the protocol: as §1
In series [4] the parent is B1. The series can be described thus: self-cleavage kobs at 10000 uM GlcN6P; higher = faster cleavage; RNA array. An outline of the steps: as §1
Variants of B1 are the subject of series [5]. Nature of the series: KM; higher = weaker cofactor use; RNA array. An outline of the steps: as §1
The variants in series [6] derive from B1. The series can be described thus: self-cleavage kobs at 2500 uM GlcN6P; higher = faster cleavage; RNA array. An outline of the steps: as §1
In series [7] the parent is B1. The series can be described thus: self-cleavage kobs at 640 uM GlcN6P; higher = faster cleavage; RNA array. A digest of the protocol:
as §1

± gives the standard error. For some of these results: Fewer inactive variants are shown than the library holds.

With AUAAAAGCGCCAGAACUACAGAAAUGUAGUUGACGAGGAGGAGGUUUAUCGAAUUUGCGGCGGAUGCCUCGAAA, the kcat in the series with glucosamine-6-phosphate [1] was found to be 2.02e-05 ± 3.8e-06 s⁻¹.
Still for that read-out and setting: the figure for AUAAAAGCGCCAGAACUACAGAAAUGUAGUUGACGAUGAGGAGGUUUAUCGAAUUUUCGGCGGAUGCCUACAAA is 1.53e-05 ± 2e-06 s⁻¹.
The same measure, in the same setting: the figure for AUAAAAGCGGCAGAACUACAGAAAUGUAGUUGACGAGGAGGAGGUUUAUCGGAUUAUCGGCGGAUGCCUACAAA is 1.68e-05 ± 4.2e-06 s⁻¹.
Consider AUAAAAGCGCCAGAACUACAGAAAUGUAGUUGACGAGGAGGAGGUUUAUCUAAUUUUCGGAGGAUGCCUCCAAA, for which the kcat with glucosamine-6-phosphate [1] is less than 1e-05 s⁻¹. Besides, in the series with glucosamine-6-phosphate [2], the “self-cleavage kobs at 40 uM GlcN6P” value is less than 1e-05 s⁻¹. Further, the “self-cleavage kobs at 160 uM GlcN6P” value with glucosamine-6-phosphate [3] is less than 1e-05 s⁻¹. Also, the “self-cleavage kobs at 10000 uM GlcN6P” value with glucosamine-6-phosphate [4] is less than 1e-05 s⁻¹.
Consider AUAAAAGCGCCAGAACUACAGAAAUGUAGUUGACGAGGAGGAGGUUUAUCGAAUUCUUGGCGGAUGCCUCCAAA, for which, in the series with glucosamine-6-phosphate [1], the kcat was found to be 6.39e-05 ± 2.4e-06 s⁻¹. The KM in the series with glucosamine-6-phosphate [5] came out at 4240 ± 440 µM. In the series with glucosamine-6-phosphate [6], the “self-cleavage kobs at 2500 uM GlcN6P” value was determined as 2.41e-05 ± 1.1e-05 s⁻¹. Besides, the “self-cleavage kobs at 10000 uM GlcN6P” value in the series with glucosamine-6-phosphate [4] turned out to be 4.48e-05 ± 8.5e-06 s⁻¹.
For AUAAAAGCGCCAGAACUACAGAAAUGUAGUUGACGAGGAGGAGGUUUAUCGAAGUUUCGGCGGAUGCCUGCAAA, the kcat with glucosamine-6-phosphate [1] stood at 0.000119 ± 2.1e-05 s⁻¹. In addition, the “self-cleavage kobs at 40 uM GlcN6P” value with glucosamine-6-phosphate [2] is 8.74e-05 ± 8.1e-06 s⁻¹. In addition, the “self-cleavage kobs at 160 uM GlcN6P” value with glucosamine-6-phosphate [3] came to 0.000128 ± 1.7e-05 s⁻¹. Also, in the series with glucosamine-6-phosphate [7], the “self-cleavage kobs at 640 uM GlcN6P” value was 0.000182 ± 2.2e-05 s⁻¹. For the same variant, in the series with glucosamine-6-phosphate [6], the “self-cleavage kobs at 2500 uM GlcN6P” value was determined as 0.000182 ± 2.5e-05 s⁻¹. In addition, the “self-cleavage kobs at 10000 uM GlcN6P” value with glucosamine-6-phosphate [4] was determined as 9.76e-05 ± 9.2e-06 s⁻¹.
With AUAAAAGCGCCGGAACUACAGAAAUGUAGUUGACGAGGAGGAGGUUUAUCGAAUUUUCGGCGGAUGCCGCCAAA, in the series with glucosamine-6-phosphate [1], the kcat is 7.83e-05 ± 2.6e-06 s⁻¹. Also, the KM with glucosamine-6-phosphate [5] was determined as 285 ± 71 µM. Also, in the series with glucosamine-6-phosphate [7], the “self-cleavage kobs at 640 uM GlcN6P” value turned out to be 5.05e-05 ± 1.9e-05 s⁻¹. Further, the “self-cleavage kobs at 2500 uM GlcN6P” value in the series with glucosamine-6-phosphate [6] worked out at 7.46e-05 ± 1.5e-05 s⁻¹. Besides, the “self-cleavage kobs at 10000 uM GlcN6P” value with glucosamine-6-phosphate [4] was determined as 7.47e-05 ± 1.1e-05 s⁻¹.
Consider AUAAAAGCGCAAGAACUACAGAAAUGUAGUUGACGAGGAGGAGGUUUAUCGAAUAUUCGGCGGAUGCCUCCAAA, for which the kcat with glucosamine-6-phosphate [1] amounted to 0.000149 ± 2.2e-05 s⁻¹. In addition, in the series with glucosamine-6-phosphate [7], the “self-cleavage kobs at 640 uM GlcN6P” value came to 0.000125 ± 4e-05 s⁻¹. The “self-cleavage kobs at 2500 uM GlcN6P” value with glucosamine-6-phosphate [6] was 0.000203 ± 4.1e-05 s⁻¹. The “self-cleavage kobs at 10000 uM GlcN6P” value in the series with glucosamine-6-phosphate [4] came out at 0.000135 ± 1.4e-05 s⁻¹.
For the variant AUAAAAGCGCCAGAACUACAGAAAUGUAGUUGACGAGGAGGAGGGUUAUCGAAUUUUCGGCGGAUGGCUCCAAA, the catalytic constant (kcat) in the series with glucosamine-6-phosphate [1] was 0.000915 ± 0.00011 s⁻¹. Besides, the KM with glucosamine-6-phosphate [5] is 1420 ± 340 µM. Also, the “self-cleavage kobs at 40 uM GlcN6P” value in the series with glucosamine-6-phosphate [2] was 3.25e-05 ± 1.2e-05 s⁻¹. For the same variant, in the series with glucosamine-6-phosphate [3], the “self-cleavage kobs at 160 uM GlcN6P” value amounted to 7.93e-05 ± 2.7e-05 s⁻¹. Besides, the “self-cleavage kobs at 640 uM GlcN6P” value with glucosamine-6-phosphate [7] was 0.000303 ± 4.8e-05 s⁻¹. The “self-cleavage kobs at 2500 uM GlcN6P” value with glucosamine-6-phosphate [6] came to 0.000477 ± 0.00011 s⁻¹. Besides, the “self-cleavage kobs at 10000 uM GlcN6P” value in the series with glucosamine-6-phosphate [4] is 0.000846 ± 0.00011 s⁻¹.
With AUAAAAGCGCCAGAGCUACAGAAAUGUAGUUGACGAGGAGGAGGUUUAUCGAAUUUGCGGCGGAUGCCUCCAAA, the kcat in the series with glucosamine-6-phosphate [1] was found to be 9.24e-05 ± 1.1e-05 s⁻¹. For the same variant, in the series with glucosamine-6-phosphate [5], the KM worked out at 2500 ± 1200 µM. Further, the “self-cleavage kobs at 2500 uM GlcN6P” value with glucosamine-6-phosphate [6] came out at 5.11e-05 ± 2.2e-05 s⁻¹. Also, in the series with glucosamine-6-phosphate [4], the “self-cleavage kobs at 10000 uM GlcN6P” value stood at 7.35e-05 ± 1.2e-05 s⁻¹.

These data come from the supplement of paper PMC7125110.
